Data from article PMC5426795, “Controlling transferrin receptor trafficking with GPI-valence in bloodstream stage African trypanosomes” (PLoS Pathogens, 2017).

Key:
Experiment in all cases: native gel or EMSA; BN-PAGE (4-16% gradient) of 1% dodecylmaltoside extracts of cell lines cultured 24 hr with tetracycline, without or with 4 M urea; immunoblot with anti-TfR or anti-VSG221
[1] = biological target: ESAG7, subunit of the transferrin receptor (TfR) without GPI anchor (T. brucei brucei (Lister 427))
[2] = biological target: ESAG6, GPI-anchored subunit of the transferrin receptor (TfR) (T. brucei brucei (Lister 427))
[3] = biological target: the molecule itself

Q: “ESAG7, subunit of the transferrin receptor (TfR) without GPI anchor (natural protein)” was tested. Which stoichiometry N [1] did it give?
A: 2

Q: How did the stoichiometry N [2] turn out when “ESAG6, GPI-anchored subunit of the transferrin receptor (TfR) (natural protein)” was run?
A: 2

B1: variant surface glycoprotein VSG221 (MITat1.2) (natural protein)
chain: AAEKGFKQAFWQPLCQVSEELDDQPKGALFTLQAAASKIQKMRDAALRASIYAEINHGTNRAKAAVIVANHYAMKADSGLEALKQTLSSQEVTATATASYLKGRIDEYLNLLLQTKESGTSGCMMDTSGTNTVTKAGGTIGGVPCKLQLSPIQPKRPAATYLGKAGYVGLTRQADAANNFHDNDAECRLASGHNTNGLGKSGQLSAAVTMAAGYVTVANSQTAVTVQALDALQEASGAAHQPWIDAWKAKKALTGAETAEFRNETAGIAGKTGVTKLVEEALLKKKDSEASEIQTELKKYFSGHENEQWTAIEKLISEQPVAQNLVGDNQPTKLGELEGNAKLTTILAYYRMETAGKFEVLTQKHKPAESQQQAAETEGSCNKKDQNECKSPCKWHNDAENKKCTLDKEEAKKVADETAKDGKTGNTNTTGSS
modifications: GPI anchor, C-terminal
notes: variant surface glycoprotein VSG221 of MITat1.2, T. brucei brucei Lister 427; Internal control of the BN-PAGE; also called dVSG; mVSG; source: endogenous, bloodstream form T. brucei brucei Lister 427 (MITat1.2), dodecylmaltoside extract
Q: Which “stoichiometry N” value [3] does the source give for B1 here?
A: 2
